Experimental data as given in US20220162314A1 (ASHER BIOTHERAPEUTICS, published 2022).

Experiments:
[1] = target: T1, CD8 on human CD8+ T cells (CD3+CD8a+CD8b+ cells of hPBMCs) (human, UniProt P01732 22-235; P10966 22-210); assay: flow cytometry, CD8+ T cells, anti-human Fc MFI
T1 construct: whole, on cells; also called CD8ab+ T cells
Procedure: (§1) The binding of CD8ab antibodies on cells was determined by flow cytometry. Freshly isolated PBMCs were incubated with CD8ab antibodies for 2 hours at 4° C. Cells were then stained with antibodies against surface markers CD3 (UCHT1), CD4 (RPA-T4), CD8a (SK1), CD56 (HCD56), and anti-human Fc antibody (HP6017). Anti-human Fc antibody was used to measure the binding of CD8ab antibodies containing hFc. Stained cells were washed and analyzed by flow cytometry and mean fluorescence intensity (MFI) of staining with anti-hFc was used to denote binding.

[2] = target: T1, CD8 on human CD8+ T cells …; assay: flow cytometry on human PBMCs, CD8+ T cells (CD3+CD8a+CD8b+), anti-human Fc MFI
Procedure: (§2) Binding of CD8ab antibodies to T cells (FIG. 4) and NK cells (FIG. 5) in hPBMCs was detected by staining with anti-human Fc antibody conjugated to APC. Anti-hFc was used to measure the binding of CD8 antibodies containing hFc. Mean fluorescence intensity (MFI) of staining with anti-hFc is used to denote binding. Binding of anti-hFc was determined in CD3+CD8a+CD8b+ cells (CD8+ T cells) and CD3-CD56+CD8a+ cells (CD8+NK cells).
as §1

[3] = target: T2, CD8aa on human CD8+ NK cells (CD3-CD56+CD8a+ cells of hPBMCs) (human, UniProt P01732 22-235); assay: flow cytometry on human PBMCs, CD8+ NK cells (CD3-CD56+CD8a+), anti-human Fc MFI
T2 construct: whole, on cells; also called CD8aa+ NK cells
Procedure: as §2, §1

[4] = target: T3, Recombinant human CD8ab protein (extracellular domains of CD8a and CD8b with leucine zippers and tags) (human, UniProt P01732 22-182; P10966 22-170); assay: ELISA: antigen coated on the plate, antibody titrated, anti-IgG (Fc)-HRP and TMB, A450
T3 construct: extracellular domain; Secreted from HEK293 cells; also called recombinant CD8ab; soluble CD8ab antigen; not shown: acidic leucine zipper; 8x Histidine tag; basic leucine zipper; Strep-tag II
Procedure: (§3) Binding specificity of the antibodies was determined by ELISA. […] of recombinant CD8ab, CD8a (Sino biological), CD8b (Sino biological) and ovalbumin (Sigma) or Erb2 (human epidermal growth factor receptor 2) (Sino biological) in PBS were coated onto the maxisorp plate overnight at 4° C. Ovalbumin or Erb2 was used as negative control. Plate was then blocked with casein blocking solution (Thermo Scientific) for 1 hr at room temperature. After blocking, plate was washed with wash buffer (PBS/0.05% Tween-20). Next, dilution of antibody from 30 nM to 0.0009 nM in PBS/0.5% BSA/0.05% Tween-20 was added onto the plate and incubated for 1-2 hr at room temperature. After incubation, plate was washed, and incubated with anti-human IgG (Fc specific)-HRP conjugate or anti-mouse IgG (Fc specific)-HRP conjugate (Jackson Immunoresearch) in PBS/0.5% BSA/0.05% Tween-20 for 1 hr. Binding was detected by adding TMB substrate (SeraCare) to the plate, followed by stopping solution of 0.1M HCl. Binding absorbance was read using GloMax® Discover Microplate Reader (Promega).

[5] = target: T4, Recombinant CD8a (Sino biological) (human, UniProt P01732 22-182); assay: as above
T4 construct: also called CD8a alone
Procedure: as §3

[6] = target: T5, Recombinant CD8b (Sino biological) (human, UniProt P10966 22-170, limits assumed); assay: as above
T5 construct: also called CD8b alone
Procedure: as §3

[7] = target: T3, Recombinant human CD8ab protein …; assay: SPR (Biacore T200, 37 C), antibody captured by anti-human IgG Fc, soluble CD8ab as analyte, 1:1 model
Procedure: (§4) Recombinant human CD8ab protein was generated. […] Antibodies were first captured on an anti-hJgG-Fc CM5 or CM4 surface prepared using the Human Antibody Capture Kit (Cytiva). […] Dissociation was monitored for 5-10 minutes, and the anti-hJgG-Fc surface was regenerated with 3M MgCl2 before recapturing mAb in each subsequent cycle. Binding data were analyzed by Biacore T200 Evaluation Software version 3.2 using a 1:1 binding model.

[8] = target: T3, Recombinant human CD8ab protein …; assay: SPR as in Example 1 (antibody captured, soluble CD8ab as analyte), steady state fit
Procedure: as §4

T1 sequence (P01732 22-235, chain 1 of 2): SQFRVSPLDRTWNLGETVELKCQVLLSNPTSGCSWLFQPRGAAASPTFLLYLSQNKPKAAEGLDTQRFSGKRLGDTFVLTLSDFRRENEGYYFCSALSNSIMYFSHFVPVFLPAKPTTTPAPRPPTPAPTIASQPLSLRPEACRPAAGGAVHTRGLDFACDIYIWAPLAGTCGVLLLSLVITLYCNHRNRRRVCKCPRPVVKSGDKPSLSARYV
T1 sequence (P10966 22-210, chain 2 of 2): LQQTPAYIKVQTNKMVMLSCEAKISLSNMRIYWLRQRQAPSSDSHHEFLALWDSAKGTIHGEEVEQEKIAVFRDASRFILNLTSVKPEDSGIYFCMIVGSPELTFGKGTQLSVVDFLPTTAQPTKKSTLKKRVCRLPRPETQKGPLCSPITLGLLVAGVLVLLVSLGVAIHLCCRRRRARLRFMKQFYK
T3 sequence (P01732 22-182, chain 1 of 2): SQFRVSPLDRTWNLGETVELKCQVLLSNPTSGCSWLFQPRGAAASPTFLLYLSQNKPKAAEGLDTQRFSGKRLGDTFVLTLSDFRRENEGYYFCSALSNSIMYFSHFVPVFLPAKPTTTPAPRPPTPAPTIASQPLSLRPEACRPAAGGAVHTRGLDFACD
T3 sequence (P10966 22-170, chain 2 of 2): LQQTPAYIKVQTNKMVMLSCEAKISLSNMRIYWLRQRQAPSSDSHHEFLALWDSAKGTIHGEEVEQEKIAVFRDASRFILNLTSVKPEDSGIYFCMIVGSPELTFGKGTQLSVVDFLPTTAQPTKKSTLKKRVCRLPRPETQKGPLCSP
T2 sequence (P01732 22-235): as the sequence (P01732 22-235, chain 1 of 2) above
T4 sequence (P01732 22-182 limits assumed): as the sequence (P01732 22-182, chain 1 of 2) above
T5 sequence (P10966 22-170 limits assumed): as the sequence (P10966 22-170, chain 2 of 2) above

Row | EC50 (read off the curve) [1] [nM] | EC50 (read off the curve) [2] [nM] | binding result [3] | EC50 (read off the curve) [4] [nM] | binding result [5] | EC50 (read off the curve) [6] [nM] | Kd [7] [nM] | koff [7] [s⁻¹] | kon [7] [M⁻¹ s⁻¹] | Kd [8] [nM] | binding result [6] | Binder
1 | ~0.3 | ~0.3 | no binding (tested: 100 nM) | ~0.05 | no binding (tested: 30 nM) | ~0.09 | 19.8 | 0.0183 | 922000 |  |  | xhCD8v1 (antibody, V domains shown, Mouse monoclonal antibody against CD8b; also called mouse monoclonal antibody xhCD8v1; xCD8v1) VH: QVHLQQSGPELVKPGASVKMSCKTSGYTFTKYTMHWVKQGHEESLEWIGHFNPNNDETKYNQKFTGKATLTVDKSSTTAYMELRSLTSDDSALYYCARDGLGLRLFADWGQGTLITVSA VL: DIQMTQSPASLSASVGETVTITCGASENIYGALNWYQRKQGKSPQLLIFGATNLADGVSSRFSGSGSDRQYSLKISSLHPDDVATYYCQNILDTPWTFGGGTKLEIK
2 |  |  |  |  |  |  |  |  |  | 236 |  | xhCD8v8 (antibody, human IgG1, V domains shown, also called xCD8v8) VH: QVQLQQSGAELVRPGSSVKISCKASGYAFSSYWMNWVKQRPGQGLEWIGQIYPGDGDTNYNGKFKGKATLTADKSSSTAYMQLSSLTSEDSAVYFCARSGAAFSSYYAMDYWGQGTSVTVSS VL: DIQMTQSPASLSVSVGETVTITCRASENIYSNLAWYQQKQGKSPQLLVYAATNLADGVPSRFSGSGSGTQYSLKINSLQSEDFGSYYCQHFWGTPWTFGGGTKLEIK
3 |  | ~0.3 | no binding (tested: 100 nM) | ~0.07 | no binding (tested: 30 nM) |  | 0.35 | 0.000571 | 1.62e+06 |  | no binding (tested: 30 nM) | xhCD8v6 (antibody, human IgG1, V domains shown, also called xCD8v6) VH: EVQLVESGGGAVRPGGSLRLSCAASGFTFDDYGMSWVRQAPGKGLEWVSDINWSGEITAYADSVKGRFTISRDNAKNSLYLQMNSLRAEDTAVYYCARSNSYRWDDALDIWGQGTMVTVSS VL: not shown
